# B1: rTcPA45: recombinant T. cruzi polyclonal activator 45, B-cell mitogen and proline racemase, codons 30-423 with C-terminal 6×His tag, from E. coli (protein)
# chain: RTGQEKLLFDQKYKIIKGEKKEKKKNQRANRREHQQKREIMRFKKSFTCIDMHTEGEAARIVTSGLPHIPGSNMAEKKAYLQENMDYLRRGIMLEPRGHDDMFGAFLFDPIEEGADLGMVFMDTGGYLNMCGHNSIAAVTAAVETGIVSVPAKATNVPVVLDTPAGLVRGTAHLQSGTESEVSNASIINVPSFLYQQDVVVVLPKPYGEVRVDIAFGGNFFAIVPAEQLGIDISVQNLSRLQEAGELLRTEINRSVKVQHPQLPHINTVDCVEIYGPPTNPEANYKNVVIFGNRQADRSPCGTGTSAKMATLYAKGQLRIGETFVYESILGSLFQGRVLGEERIPGVKVPVTKDAEEGMLVVTAEITGKAFIMGFNTMLFDPTDPFKNGFTLKQ
# modifications: left off: small tags and cut ends
# Test system: total spleen cells
# Test: In vitro proliferation assay of splenocytes (3H-thymidine uptake)
# Type: cell-based, mouse
# Description: Briefly, freshly recovered splenocytes from 8 week old male Balb/c mice seeded at a concentration of 5×10^4 cells/well were incubated for 24, 48 and 72 h in 5% FCS RPMI-1640 medium. A 16 h ^3H-thymidine pulse at 1 μCi/well was performed before harvesting. ^3H-Thymidine uptake was determined in a beta-plate liquid scintillation counter (LKB-Wallac). All points were done in triplicate and the corresponding standard deviation calculated. For comparison, ^3H-thymidine uptake after 48 h in the presence of ConA (10 μg/ml) and LPS (5 μg/ml) was 32000 c.p.m. and 3500 c.p.m., respectively. T-cell depletion was performed by incubating freshly recovered spleen cells for 30 min at 37° C. in the presence of anti-Thy 1.2 monoclonal antibody (Cedarlane) and rabbit complement (Cedarlane). In order to rule out a possible mitogenic effect due to LPS contamination in samples, proliferation assays were also performed on freshly recovered splenocytes from the LPS non-responder mouse strain C3H/Hej. Same levels of proliferation were verified. Balb/c mice were purchased from Charles River, France. C3H/Hej mice were maintained in our animal facilities.
# In vitro proliferation is accomplished using freshly recovered splenocytes from BALB/c mice seeded at a density of 5×10^4 cells/well and incubated for 24, 48 and 72 h with increasing concentrations of total parasite supernatants or recombinant TcPa45 protein or other mitogen (0.07-200 μg/ml) with 0.5 μg/ml of the HPLC fractions, or with the conventionally used mitogens concanavalin A (10 μg/ml) and lipopolysaccharide (5 μg/ml) in 5% FCS in RPMI-1640 complete medium. T-cell depletion is accomplished by incubating freshly recovered spleen cells for 30 min. at 37° C. in the presence of monoclonal antibodies against Thy 1.2 and rabbit complement (Cedarlane, Le Perray en Yvelines, France). Analysis of proliferative activity of total splenocytes (5×10^4 cells/well) in the presence of 50 μg/ml enzymatically active rTcPA45 or other mitogen is also compared with the proliferation obtained using the same amounts of rTcPA45 protein or other mitogen lacking racemase activity (by heating for 10 min. at […] or by long term storage at 4° C.). Inhibition of proliferation is obtained by adding to the splenocyte cultures 50 μg/ml rTcPA45 or other mitogen pre-incubated for 10 min. at 37° C. with 1 mM inhibitor, either specific (pyrrole-2-carboxylic acid) or nonspecific (iodoacetamide or iodoacetate). Competitive assays of proliferative activity by 50 μg/ml rtcPA45 or other mitogen are done by adding increasing concentrations of specific substrates i.e., proline racemase substrates (L- or D-proline) for the mitogen rTcPA45 ranging from 3 mM to 50 mM. Controls include the incubation of splenocytes (5×10^4 cells/well) with substrate alone, i.e., 50 mM L- or D-proline in RPMI medium alone for prline racemase. Cultures are collected after a 16-hour pulse or 1 μCi/well ^3H-thymidine uptake was determined in a beta-plate liquid scintillation counter (LKB-Wallac, Orsay, France). All data points are obtained in triplicate and the corresponding standard deviation is calculated.
# 5×10^5 naive spleen cells/well (96 well plate) were stimulated in vitro with different doses of rTcPA45 (ranging in FIG. 4b from 0.8 to 200 μg/ml final) for 24, 48 and 72 h, at 37° C., 5% CO2. Cultures were pulsed with ^3H-Thymidine (1 μCi/well) for 16-18 h before harvesting. ^3H-thymidine incorporation was obtained after counting using a beta-plate. Results present arithmetic means of c.p.m. (counts/minute) from 6 wells/dose of rTcPA45 or wells containing medium alone (+/−SD of the means). (FIG. 4b)
# [1] = spleen lymphocytes, up to 72 h culture
molecule,measurement,setting,value
B1,mitogenic activity of inactivated rTcPA45,inactivated by being heated or by long storage at 4° C.,abolished
same,concentration at which proliferation peaks (bell-shaped dose-response curve),[1],50 µg/mL
same,concentration from which proliferation starts (bell-shaped dose-response curve),[1],0.8 µg/mL
